From patent US5508261

Tests used:
[1] = target: rat luteal ovarian LH receptors (rat) (UniProt P16235); assay: inhibition of 125I-hCG binding to rat luteal ovarian LH receptors
[2] = target: bovine testes FSH receptors (bovine) (UniProt P35376); assay: inhibition of 125I-hFSH binding to bovine testes FSH receptors

activity relative to hCG (LH RECEPTORS; ratio of concentrations for 50% inhibition) (relative to recombinant hCG) [1]: 0.53 | activity relative to hFSH (FSH RECEPTORS; ratio of concentrations for 50% inhibition) (relative to recombinant hFSH) [2]: 0.18
Substance: eCG (ligand)
